Assay results from article PMC3634016 (2013).

Molecular target: Ca^2+-CaM pre-bound to the mammalian Cav1.2 IQ peptide (rat | human, UniProt P0DP29 1-149)
Test: ITC; Ca2+; CaM pre-bound to Cav1.2 IQ

SWQAAIDAARQAKLMGS [mammalian NSCaTE_(Cav1.2) peptide]
Kd: 1800 nM
